# Results published in patent US20100143942A1, “METHOD OF DETECTION” (LEIDEN UNIVERSITY, priority 2006, published 2010).
# Where two headings read alike, the source gives them in different places.
# B1: Ty: Ty from the soil bacterium Streptomyces antibioticus, monomeric type-3 copper protein of ~30 kDa (protein, UniProt P07524 2-273, looked up)
# Tyrosinase: TVRKNQASLTAEEKRRFVAALLELKRTGRYDAFVTTHNAFILGDTDNGERTGHRSPSFLPWHRRFLLEFERALQSVDASVALPYWDWSADRSTRSSLWAPDFLGGTGRSRDGQVMDGPFAASAGNWPINVRVDGRTFLRRALGAGVSELPTRAEVDSVLAMATYDMAPWNSGSDGFRNHLEGWRGVNLHNRVHVWVGGQMATGVSPNDPVFWLHHAYIDKLWAEWQRRHPSSPYLPGGGTPNVVDLNETMKPWNDTTPAALLDHTRHYTFDV
# B2: Ty-Cy5: Streptomyces antibioticus tyrosinase labelled at its N-terminus with the dye Cy5 (conjugate, UniProt P07524 2-273, looked up)
# Tyrosinase: TVRKNQASLTAEEKRRFVAALLELKRTGRYDAFVTTHNAFILGDTDNGERTGHRSPSFLPWHRRFLLEFERALQSVDASVALPYWDWSADRSTRSSLWAPDFLGGTGRSRDGQVMDGPFAASAGNWPINVRVDGRTFLRRALGAGVSELPTRAEVDSVLAMATYDMAPWNSGSDGFRNHLEGWRGVNLHNRVHVWVGGQMATGVSPNDPVFWLHHAYIDKLWAEWQRRHPSSPYLPGGGTPNVVDLNETMKPWNDTTPAALLDHTRHYTFDV
# modifications: N-terminal Cy5 label
# Assays:
# Ty = target: T1, Ty (Streptomyces antibioticus, UniProt P07524); assay: Dye emission switching ratio (Fred/Foxy) of N-terminally labelled Ty; conditions: dye attached to Ty; excitation at 280 nm; Trp line = native protein
# T1 construct: The S.a; Ty is a monomeric protein with a molecular mass of ˜30 kDa
# T1 sequence (P07524 whole entry): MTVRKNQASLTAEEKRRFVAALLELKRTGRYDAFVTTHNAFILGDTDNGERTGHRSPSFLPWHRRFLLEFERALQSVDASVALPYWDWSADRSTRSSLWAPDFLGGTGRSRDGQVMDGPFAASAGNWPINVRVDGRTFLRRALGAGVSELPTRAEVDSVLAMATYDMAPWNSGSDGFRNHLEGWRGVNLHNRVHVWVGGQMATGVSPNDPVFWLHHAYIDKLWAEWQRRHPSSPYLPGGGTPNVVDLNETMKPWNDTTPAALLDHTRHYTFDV
# Source text: (§1) To illustrate the present invention two type-3 copper proteins have been selected: Hc from the arthropod Carcinus aestuarii (Mediterranean crab) and Ty from the soil bacterium Streptomyces antibioticus. The C.a. Hc consists of a mixture of hexamers and dodecamers, which are self-assembled from three different types of subunits. The S.a. Ty is a monomeric protein with a molecular mass of ˜30 kDa. The structure of Ty from S. castaneoglobisporus has recently been solved. S.a. Ty has 91% sequence similarity (82% indentity) with S.c. Ty and can be easily modelled on the S.c. structure. […] Dissociation can be achieved by incubating the Hc at high pH and in the absence of divalent metal ions. Both conditions were met in our experiments and we will assume, therefore, that the Hc used in this study was present in the form of monomers. The data on O2 binding (vide infra) confirms this assumption.
# Both Hc and Ty were labelled at their N-terminus with each of the five dyes. […] The peak around 330 nm is a second-order artefact. In a solution containing dye and protein separately (not linked) this peak (280 nm) was missing. […]
# In all cases, an increase in label emission was observed after deoxygenating the sample (FIG. 4A). […] The Cy3 fluorescence is specific for the labelled protein, while the Trp emission derives mainly (>95%) from unlabelled Hc. […]
# [1] = literature [14]; read-out: literature dissociation constant (O2); cited from earlier work
# [2] = literature [12], [13]; cited from earlier work
# [3] = literature [15]; read-out: literature Kd (iodide); cited from earlier work
# [4] = O2 binding curve of labelled Ty; [O2] calculated from Hc-Atto390 fluorescence in the same sample during deoxygenation; set-up: species or system Streptomyces antibioticus; conditions: label fluorescence vs [O2] determined from Hc-Atto390; read-out: Kd (O2 binding curve fitted to Hill equation)
# Source text: as §1, with “Both conditions were met in our experiments and we will assume, therefore, that the Hc used in this study was present in the form of monomers. The data on O2 binding (vide infra) confirms this assumption.” left out
# The fact that the described method works for labels showing widely different emission wavelengths opens the possibility to observe two or more constructs in the same sample using a single excitation wavelength. […] The circles refer to the oxygen concentration (right scale) as calculated from the fluorescence of the Hc-Atto390. The left scale refers to the Ty-Atto655 fluorescence. […]
# The [O2] at each time-point in the trace was determined using the response of Hc-Atto390 fluorescence with Eq. 1 and the oxygen dissociation constant and the Hill coefficient determined in an independent O2 titration (FIG. 6A). The Ty-Atto655 fluorescence was then plotted as a function of the determined [O2] at each time-point (FIG. 6B). […]
# [5] = Titration of a mixture of Hc-Alexa350 and Ty-Cy5 with iodide in air-saturated solution, emission upon excitation at 280 nm; assay type: binding; conditions: fitted to Eq. 1, read-out: apparent Kd (iodide)
# Procedure: The specificity of the method is illustrated by the data presented in FIG. 7, which show a titration of a mixture of Hc-Alexa350 and Ty-Cy5 with iodide in an air-saturated solution. […] Hc. […] The small fluorescence decrease of the latter can be ascribed to the aspecific collisional quenching of the label and/or the Trp fluorescence by iodide. […] The difference between the experimental Kd and the literature value of 3.0±0.3 mM [15] may be related to its dependence on the [O2] in the sample, which may have varied between the two experiments.
molecule,measurement,setting,value
Cc1cc(=O)oc2cc3c(cc12)C(C)CC(C)(C)N3CCCC(=O)O (stereo not shown) [Atto390],SR Tyr (switching ratio Fred/Foxy),Ty,2.2
CCN1C(=CC=CC2=[N+](CCCCCC(=O)O)c3ccc(S(=O)(=O)O)cc3C2(C)C)C(C)(C)c2cc(S(=O)(=O)[O-])ccc21 [Cy3],SR Tyr (switching ratio Fred/Foxy),Ty,2.8
B1,Kd,[1],16 µM
same,O2 dissociation rate,[2],~300 s⁻¹
same,Kd,[3],3000 ± 300 µM
B2,Kd,[4],15 µM
same,Kd,[5],4400 ± 300 µM
